Test results: patent publication US20050100970A1 (Affibody, published 2005)

Experiments:
human serum albumin [1] = biological target: T1, human serum albumin (human, UniProt P02768 25-609); test: BIAcore 2000, HSA immobilised on CM5 chip, 40-220 nM ABDwt
T1 construct: Amine-coupled to a CM5 chip, coupled to Sepharose, or loaded in solution onto the ABD columns; also called HSA

human serum albumin [2] = biological target: T1, human serum albumin; test: Biacore 2000, HSA immobilised on a CM5 chip, analyte at 200 nM, 20 µl/min
human serum albumin [3] = biological target: T1, human serum albumin; test: BIAcore 2000, HSA immobilised on CM5 chip, 200-600 nM ABDmut

B1: wild type Albumin Binding Protein (ABD) (other)
chain: MKAIFVLNAQHDEAVDANSLAEAKVLANRELDKYGVSDYYKNLINNAKTVEGVKALIDEILAALP
notes: Expressed in E. coli from pTrpABDT1T2; also called ABDwt; unmutated protein
B1 was tested. Which Ka (human serum albumin [1]) did it give?
Its Ka is 6.9e+07 M⁻¹.

And the koff (human serum albumin [1])?
Its koff is 0.0013 s⁻¹.

And the kon (human serum albumin [1])?
Its kon is 90000 M⁻¹ s⁻¹.

B2: ABDmut22-25-26 (designed binder)
chain: MKAIFVLNAQHDEAVDANSLAAAKAAALRELDKYGVSDYYKDLIDKAKTVEGVKALIDEILAALP
notes: also called 22-25-26 A; triple mutant of ABDmut
Does B2 bind (human serum albumin [2])?
Result: binds

B3: ABDmut (Asn28Leu, Asn42Asp, Asn45Asp, Asn46Lys variant of ABD) (designed binder)
chain: MKAIFVLNAQHDEAVDANSLAEAKVLALRELDKYGVSDYYKDLIDKAKTVEGVKALIDEILAALP
notes: Expressed in E. coli from pTrpABDmutT1T2; also called ABDstab; mutated ABD
What does the source list for B3?
Ka (human serum albumin [3]): 1.5e+07 M⁻¹; koff (human serum albumin [3]): 0.0012 s⁻¹; kon (human serum albumin [3]): 18000 M⁻¹ s⁻¹

B4: ABDmut54-57-58 (designed binder)
chain: MKAIFVLNAQHDEAVDANSLAEAKVLALRELDKYGVSDYYKDLIDKAKTVEGVAALAAEILAALP
notes: also called 54-57-58 A; ABDmutS4-57-58
Does B4 bind (human serum albumin [2])?
Result: binds
